According to patent US20230310629A1, “BISPECIFIC ANTIBODY-DRUG CONJUGATES TARGETING EGFR AND MUC1 AND USES THEREOF” (Merck Patent GmbH, priority 2020, published 2023):

What was measured:
[1] = target: human MUC1-VNTR peptide (Homo sapiens, UniProt P15941); experiment: Biacore binding to human MUC1-VNTR peptide (Example 1)
Experimental: An anti-MUC1 scFv (H02) was developed by affinity maturation of anti-MUC1 antibody HT186-D11 (see Thie H. et al. PLoS One […], 6, 1, e15921) using ribosome display selection. For the scFv library, CDRs H1, H2, H3 and L3 (SEQ ID NOs: 4, 5, 6, and 9) were targeted. scFv ribosome display selections were then performed against a biotinylated synthetic VNTR peptide of MUC ([…]-biotin) (SEQ ID NO:10).

[2] = tested on: WISH cells; experiment: WISH cell binding (Example 1); design: species or system human; unit not given here
[3] = human MUC1-VNTR, second data set

B1: 1993-H02: anti-MUC1 antibody variant from affinity maturation of HT186-D11, with HT186-D11 light chain; developed as scFv (antibody, V domains shown)
VH: QMQLVQSEAELKKPGASVKVSCKASGYSFTSHFMHWVRQAPGQGLEWMGWIDPVTGGTKYAQNFQGWVTMTRDTSIRTAYLELSRLRSDDTAMYYCAREARADRGQFDKWGQGTLVTVAS
VL: QSVLTQPPSVSVAPGKTARITCGGNNIGSKSVHWYQQKPGQAPALVIYYGSNRPSGIPERFSGSNSGNTATLTISRVEAGDEADYYCQVWDSSSDWVFGGGTKLTVL
Q: Which “Turbidity A600” value does the source give for B1 here?
A: 0.15

Q: And the kd ([1]; human MUC1-VNTR peptide, first data set)?
A: 2.14E−04 ½

Q: What about the ka1 [1, 3] of the same molecule?
A: 126000 M⁻¹ s⁻¹

Q: And the kd1 [1, 3]?
A: 0.0017 s⁻¹

Q: And the Bmax [2]?
A: 128920
